From US20200165342A1
Where “and” joins values, the source holds several entries; their conditions need not be identical. Identical values can stand only once.

Experiments:
Test in all cases: cell-based or functional assay
[1] = biological target: HLA-DR of the DR^weak donor (HLA-DRB1 variant bound weakly by MVR), on B cells, T cells and EBV LCLs (human)
[2] = biological target: HLA-DR of the DR^int donor (HLA-DRB1 variant bound with intermediate affinity by MVR), on B cells and T cells (human)
[3] = biological target: HLA-DR of the DR^str donor (HLA-DRB1 variant bound strongly by MVR), on B cells, T cells and EBV LCLs (human)

frequency of CAR T cells with two or more exhaustion markers [1]: 9.2% | frequency of CD4+ MVR-CAR T cells with two or more polyfunctional markers after co-culture with DR^weak-EBV-LCLs [1]: 31.6% | frequency of CD8+ MVR-CAR T cells with two or more polyfunctional markers after co-culture with DR^weak-EBV-LCLs [1]: 26.3% | frequency of Tim-3 expressing CAR T cells [1]: 60.7% | surface CAR expression (MFI) relative to CD19 CAR T cells [1]: 2 fold lower | frequency of CAR T cells with two or more exhaustion markers (LAG-3, Tim-3, CTLA-4, PD-1) [2]: 65.8% | frequency of CD4+ MVR-CAR T cells with two or more polyfunctional markers after co-culture with DR^str-EBV-LCLs [3]: 71.3% | frequency of CD8+ MVR-CAR T cells with two or more polyfunctional markers after co-culture with DR^str-EBV-LCLs [3]: 29.4% | granule influx into DR^str B cells and DR^str EBV LCLs relative to CD19 CAR T cells [3]: 2 fold and 4 fold | granule transfer rate to DR^str-EBV-LCLs relative to DR^weak-EBV-LCLs [3]: 2 to 3 times higher
B1: MVR CAR (second-generation HLA-DR CAR, FLAG-tagged, from pELPS-FLAGMVRBBz, expressed on T cells or EBV LCLs) (protein)
chain: DYKDDDDKDIQMTQSSSYLSVSLGGRVTITCKASDHINNWLAWYQQKPGNAPRLLISGATSLETGVPSRFSGSGSGKDYTLSITSLQTEDVATYYCQQYWSTPFTFGSGTKLEIKGGGGSGGGGSGGGGSQVQLKESGPGLVAPSQSLSITSTVSGFSLSRYSVHWVRQPPGKGLEWLGMIWGGGSTDYNSALKSRLSISKDNSKSQVFLKMNSLQTDDTAMYYCARNEGDTTAGTWFAYWGQGTLVTVSSTTTPAPRPPTPAPTIASQPLSLRPEACRPAAGGAVHTRGLDFACDIYIWAPLAGTCGVLLLSLVITLYCKRGRKKLLYIFKQPFMRPVQTTQEEDGCSCRFPEEEEGGCELRVKFSRSADAPAYKQGQNQLYNELNLGRREEYDVLDKRRGRDPEMGGKPRRKNPQEGLYNELQKDKMAEAYSEIGMKGERRRGKGHDGLYQGLSTATKDTYDALHMQALPPR
